Assay: yeast display, Sf9 membrane polyspecificity reagent, FACS + sequencing; frameworks hold sequencing errors
Outline: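 Galactose-induced (36–48 hours) yeast carrying a synthetic nanobody display library were exposed to 10% biotinylated, detergent-solubilized Sf9 membrane reagent at 4 °C for 1 hour. FACS followed streptavidin microbead enrichment, using low and high (top ~1%) gates for expression (anti-HA) and reagent binding (streptavidin). Colony PCR, MiSeq 2 × 250 sequencing and CDR-length filtering followed. Labels for polyreactivity reflect the gate of origin.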

## QVQLVESGGGLVQAGGSLRLSCAASGSTFYYNAMGWYRQAHGKERELVARISRSGGSTYADSVKGRFTISRDNAKNTVYLQMNSLKPEDTAVYYCNADAYGTPEFTSYAVRYDYWGQGTQVTVSS
  polyreactivity (PSR sort gate): low polyreactivity

## QVQLVESGGGLVQAGGSLRLSCAASGSTFYYNAMGWYRQAPGKERELFAAITFTGGSTYADSVKGRFTISRDNAKNTVYLQMNSLKPEDTAVFYCAATIQGHDYLGSGYDYWGQGTQVTVSS
  polyreactivity (PSR sort gate): low polyreactivity

## QVQLVESGGGLVQAGGSLRLSCAASGSTFYYNAMGWYRQAPGKERELVAAISRSGGRTYYADSVKGRFTISRDNAKNTVYLQMNSLKPEDTAVYYCAADAPGHEYYYWGQGTQVTVSS
  polyreactivity (PSR sort gate): high polyreactivity

## QVQLVESGGGLVQAGGSLRLSCAASGSTFYYNAMGWYRQAPGKERELVAAITFTGGSTYADSVKGRFSISRDNAKNTVYLQMNSLKPEDTAVYYCAATIQGHDYLGTGYDYWGQGTQVTVSS
  polyreactivity (PSR sort gate): low polyreactivity

## QVQLVESGGGLVQAGGSLRLSCAASGSTFYYNAMGWYRQAPGKERELVAAITFTGGSTYADSVKGRFTISRDNAKNTVYLQMNSLKPEDTAVFYCAATIQGHDYLGTGYDYWGQGTQVTVSS
  polyreactivity (PSR sort gate): low polyreactivity

## QVQLVESGGGLVQAGGSLRLSCAASGSTFYYNAMGWYRQAPGKERELVAGITSSGGSTYYADSVKGRFTISRDNAKNTVYLQMNSLKPEDTAVYYCAASYKRSRRGYYWGQGTQVTVSS
  polyreactivity (PSR sort gate): high polyreactivity

## QVQLVESGGGLVQAGGSLRLSCAASGSTFYYNAMGWYRQAPGKERELVARISRSGGSTYADSVKGRVTISRDNAKNTVYLQMNSLKPEDTAVYYCNADAYGTPEFTSYAVRYDYWGQGTQVTVSS
  polyreactivity (PSR sort gate): low polyreactivity

## QVQLVESGGGLVQAGGSLRLSCAASGSTFYYVNAMGWYRQAPGKEREFVAAISSSSGSTYYADSVKGRFTISRDNAKNTVYLQMNSLKPEDTAVYYCAKVPRYYKSYYWGQGTQVTVSS
  polyreactivity (PSR sort gate): high polyreactivity

## QVQLVESGGGLVQAGGSLRLSCAASGSTFYYYALGWYRQAPGKERELVASITRGGGSTYYADSVKGRFTISRDNAKNTVYLQMNSLKPEDTAVYYCAARGRFRKYDYWGQGTQVTVSS
  polyreactivity (PSR sort gate): high polyreactivity

## QVQLVESGGGLVQAGGSLRLSCAASGSTFYYYAMGWSRQAPGKERELVATITSGGSTNYADSVKGRFTISRDNAKNTVYLQMNSLKPEDTAVYYCNADDGYSVWGYDYWGQGTQVTVSS
  polyreactivity (PSR sort gate): low polyreactivity

## QVQLVESGGGLVQAGGSLRLSCAASGSTFYYYAMGWYRPAPGKERELVATIDSGTSTYYADSVKGRFTISRDNAKNTVYFQMNSLKPEDTAVYYCAAKTWSWSYGYNYWGQGTLVTVSS
  polyreactivity (PSR sort gate): low polyreactivity

## QVQLVESGGGLVQAGGSLRLSCAASGSTFYYYAMGWYRQAPGKEREFVAAITWSGGSTYYADSVKGRFTISRDNAKNTVYLQMNSLKPEDTAVYYCAKDQRYYYYGGGDYWGQGTQVTVSS
  polyreactivity (PSR sort gate): low polyreactivity

## QVQLVESGGGLVQAGGSLRLSCAASGSTFYYYAMGWYRQAPGKERELVAAINDSGDRTYYADSVKGRFTISRDNAKNNVYLQMNSLKPEDTAVYYCAADLVSLDPEYDYWGQGTQVTVSS
  polyreactivity (PSR sort gate): low polyreactivity

## QVQLVESGGGLVQAGGSLRLSCAASGSTFYYYAMGWYRQAPGKERELVAAINSGGRTNYADSVKGRFTISRDNAKNTVYLQMNSLKPEDTAVYSCARDGYHRDYDYWGQGTQVTVSS
  polyreactivity (PSR sort gate): low polyreactivity

## QVQLVESGGGLVQAGGSLRLSCAASGSTFYYYAMGWYRQAPGKERELVAAITISGGSTYADSVKGRFTISRDNAKNTVYLQMNSLKPEDTALYYCAAYSGVGYLWFDYWGQGTQVTVSS
  polyreactivity (PSR sort gate): low polyreactivity

## QVQLVESGGGLVQAGGSLRLSCAASGSTFYYYAMGWYRQAPGKERELVAAITNVTSTYYADSVKGRFTISRDNAKNTVYLQMNSLKPEDTAGYYCAAPDPSTEVTYDYWGQGTQVTVSS
  polyreactivity (PSR sort gate): low polyreactivity

## QVQLVESGGGLVQAGGSLRLSCAASGSTFYYYAMGWYRQAPGKERELVASITTGGGSTYYADSVKGRFTISRDNAKNTVYLQMNSLKPEDTAVYYCAAALAYYYWWYDYWGQGTQVTVSS
  polyreactivity (PSR sort gate): low polyreactivity

## QVQLVESGGGLVQAGGSLRLSCAASGSTFYYYAMGWYRQAPGKERELVASITTGGGSTYYADSVKGRFTISRDYAKNTVYLQMNSLKPEDTAVYYCAAALAYYYWWYDYWGQGTQVTVSS
  polyreactivity (PSR sort gate): low polyreactivity

## QVQLVESGGGLVQAGGSLRLSCAASGSTFYYYAMGWYRQAPGTAREWVAAISYSGGRTYYADSVKGRFTISRDHAKNTDDIQMNSLKPEYTAVYYCATGQPILALRYAYGYWGQATQVTVSS
  polyreactivity (PSR sort gate): low polyreactivity

## QVQLVESGGGLVQAGGSLRLSCAASGSTFYYYARGWYRQAPGKERELVAAIDRDDRTNYADSVKGRFTISRDNAKNTVYLQMNSLKAEDTAVYYCAAVEIYEYDYWGQGTQVTVSS
  polyreactivity (PSR sort gate): low polyreactivity

## QVQLVESGGGLVQAGGSLRLSCAASGSTFYYYTMGWYRQAPGKERELVAAISGSGSRTYYADSVKGRFTISRDNAKNTVYLQMNSLNPEDTGVYYCAAKRSYPYGSGYWGQGTQVTVSS
  polyreactivity (PSR sort gate): high polyreactivity

## QVQLVESGGGLVQAGGSLRLSCAASGSTFYYYTMGWYRQAPGKERELVARITRSGGTTYYADSVKGRFTISRDNAKNTVYLQMNSLKPEDTAVYYCAARRYGYTSITWYDYWGQGTLVTVSS
  polyreactivity (PSR sort gate): high polyreactivity

## QVQLVESGGGLVQAGGSLRLSCAASGSTIDPYGMGWYRQAPGKERELVAAITSSGRTNYADSVKGRFTISRDNAKNTVYLQMNSLKPEDTAVYYCNVQTYVELRLDYWGQGTQVTVSS
  polyreactivity (PSR sort gate): low polyreactivity

## QVQLVESGGGLVQAGGSLRLSCAASGSTIDYYAMGLYRQAPGKERELVAGISASGGSTYYADSEKGRFTISRDNAKNTVYLQMNSLKPEDTAVYYCASYYKPPGYDYWGQGTQVTVSS
  polyreactivity (PSR sort gate): low polyreactivity

## QVQLVESGGGLVQAGGSLRLSCAASGSTIERYAMGWYRPAPGKERELVAAIRWSGGSTYYADSVKGRFTISRDNAKNTVYLQMNSLKPEDTAVYYCAASRSNADWFDSLGQGTQVTVSS
  polyreactivity (PSR sort gate): high polyreactivity

## QVQLVESGGGLVQAGGSLRLSCAASGSTIFENVMGWYRQAPGKEREFVAAINTSGGSTYYADSVKGRFTISRDNAKNTVYLQMNSLKPEDTAVYYCARDSYWEMDYWGQGTQVTVSS
  polyreactivity (PSR sort gate): low polyreactivity

## QVQLVESGGGLVQAGGSLRLSCAASGSTIGDNAMGWYRQAPGKERELVASISWSGASTYYADSVKGRFTISRDNAKNTVYLQMNSLKPEDTAVYYCAVYYSYYSHLYHLLFSYWGQGTQVTVSS
  polyreactivity (PSR sort gate): low polyreactivity

## QVQLVESGGGLVQAGGSLRLSCAASGSTIGPYAMGWYRQAPGKERELVAAITESGDSTYYADSVKGRFTISRDTAKNTVYLQMNSLKPEDTAVYYCAADVYGDKMDYWGQGTQVTVSS
  polyreactivity (PSR sort gate): low polyreactivity

## QVQLVESGGGLVQAGGSLRLSCAASGSTIGYYAMGWYRQAPGTERELVAAITRSGGSTSYADSVKGRFTISRDNAKNTVYLQMNSLKPEDTAVYYCAARFYRPYYARQGYNYWGQGTQVTVSS
  polyreactivity (PSR sort gate): high polyreactivity

## QVQLVESGGGLVQAGGSLRLSCAASGSTIIRNAMGWSRQAPGKERELVAAISTSGGRTHYADSVKGRFTISRDNAKNTVYLQMNSLKPEDTAVYYCATRGKGHYYYWGQGTQVTVSS
  polyreactivity (PSR sort gate): high polyreactivity

## QVQLVESGGGLVQAGGSLRLSCAASGSTIKGYDMGWYRQAPGKERELVAAIDSGGSTYYADSVKGRFTISRDNAKNTVYLQMNSLKPEDTAVFYCAAERVSLYWVIFGYWGQGTQVTVSS
  polyreactivity (PSR sort gate): low polyreactivity

## QVQLVESGGGLVQAGGSLRLSCAASGSTILSYGMGWYRQAPGKERELVAGISRGGITYYADSVKGRFTISRDNAKNNVYLQMNSLKPEDTAVYYCNVGLYSYYYRSRPRDYEYWGQGTQVTVSS
  polyreactivity (PSR sort gate): high polyreactivity

## QVQLVESGGGLVQAGGSLRLSCAASGSTINSYAMGWYRQAPGKERELVAAITWIGGNTYYADSVKGRFTISRDNAKNTVYLQMNSLKPEDTAVYYCAADEYFEYYYWGQGTQVTVSS
  polyreactivity (PSR sort gate): low polyreactivity

## QVQLVESGGGLVQAGGSLRLSCAASGSTIPPYVMGWYRQAPGKERELVAAISSSTSSTYYADSVKGRFTISRDNAKNTVYLQMNSLKPEDTAVYYCADEYYTYEYIYDYWGQGTQVTVSS
  polyreactivity (PSR sort gate): high polyreactivity

## QVQLVESGGGLVQAGGSLRLSCAASGSTIPWYAMGWYRQAPGKEREFVAAISWSSGRTYYADSVKGRFTISRDNAKNTVYLQMNSLKPEDTAVYYCAARQWAYYRDVEMGYWGQGTQVTVSS
  polyreactivity (PSR sort gate): high polyreactivity

## QVQLVESGGGLVQAGGSLRLSCAASGSTIRRNAKGWYRQAPGKERELVAAITRRAVSTYYADSVKGRFTISRDNAKNTVYLQMNSLKPEDTAVYYCAADRASYFTYAYGYWGQGTQVTVSS
  polyreactivity (PSR sort gate): high polyreactivity

## QVQLVESGGGLVQAGGSLRLSCAASGSTIRSNAMGWYRQAPGKERELVAAISRTGGRTYYADSVKGRFTISRDNAKNTVYLQMNSLKPEDTAVYYCARPDKRLEYSENYYWGQGTQVTVSS
  polyreactivity (PSR sort gate): high polyreactivity

## QVQLVESGGGLVQAGGSLRLSCAASGSTIRYYAMGWYRQAPGKERELLAAITKSGGSTYYADSVKGRFTISRDNAKNTVYLQMNSLKPEDTAVYFCAAVRRWYYPALSEHDYCGQGTQVTVSS
  polyreactivity (PSR sort gate): low polyreactivity

## QVQLVESGGGLVQAGGSLRLSCAASGSTIRYYAMGWYRQAPGKERELVAANTKSGGSTYYADSVKGRFTISRDNAKNTVYLQMNSPKPEDTAVYSCAAVRRWYYPALSEHDYWGQGTQVTVSS
  polyreactivity (PSR sort gate): low polyreactivity

## QVQLVESGGGLVQAGGSLRLSCAASGSTISGYAKGWYRQAPGKERELVATISRGGSTNYADSVKGRFTISRDNAKNTVYLQMNSLKPEDTEVYYCAAVVSDYVWRYEYWGQGTQVTVSS
  polyreactivity (PSR sort gate): low polyreactivity

## QVQLVESGGGLVQAGGSLRLSCAASGSTISKYAMGWYRQAPGKERYLVAAISSRGGSTYYADSVKGRFTISRDNAKNTVYLQMNSLTPEDTAVYYCNATPYPGGNGRWRFWKSYRYWGQGTQVTVSS
  polyreactivity (PSR sort gate): high polyreactivity

## QVQLVESGGGLVQAGGSLRLSCAASGSTISRYTMGWYPQAPGKERELVAAIRRSGSSTYYADSVKGRYTISRDNAKYTVYLQMNSLKREDTAVYYCAVGRYRYGYWGQGTQVTVSS
  polyreactivity (PSR sort gate): high polyreactivity

## QVQLVESGGGLVQAGGSLRLSCAASGSTITNYAMGWYRQAPGKERELVAAIRYSGGRTYYADSVKGRFTISRDNANNPGYLQMNSLKPEDTAVYYCAADRASYFTYAYGYWGQGTQVTVSS
  polyreactivity (PSR sort gate): high polyreactivity

— the nanobody polyreactivity screen of Harvey et al. (2022)
